Assay results from the supplement of paper PMC9233669.
This sample holds only a part of the variants without activity.

Assays:
[1] = test system: biotinyl-Met-oxazolone; experiment: self-aminoacylation, catalytic enhancement (BMO) (fold over background); higher = more active; k-Seq, kA / k0A0; sequences stand for … in GGGAAUGGAUCCACAUCUACGAAUUC…UUCACUGCAGACUUGACGAAGCUG
Summary of the method: (§1)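 Mutagenized RNA pools with a 21-nt variable region (0.43 μM) were reacted with each biotinyl-aminoacyl-oxazolone at 2–1250 μM for 90 minutes at room temperature, in 50 μL HEPES/NaCl/KCl/MgCl2/CaCl2 buffer containing 5% acetonitrile at pH 6.9–7.0. RNA captured on streptavidin was quantified by triplicate qPCR and by Illumina sequencing. The fraction reacted for each sequence was fit to a pseudo-first-order model with bootstrapping, and catalytic enhancement is the median kA divided by the uncatalyzed rate, taken as the low-activity peak of a bimodal Gaussian fit.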

[2] = test system: biotinyl-Trp-oxazolone; experiment: self-aminoacylation, catalytic enhancement (BWO) (fold over background); higher = more active; k-Seq, kA / k0A0; sequences stand for … in GGGAAUGGAUCCACAUCUACGAAUUC…UUCACUGCAGACUUGACGAAGCUG
Summary of the method: as §1

[3] = test system: biotinyl-Phe-oxazolone; experiment: self-aminoacylation, catalytic enhancement (BFO) (fold over background); higher = more active; k-Seq, kA / k0A0; sequences stand for … in GGGAAUGGAUCCACAUCUACGAAUUC…UUCACUGCAGACUUGACGAAGCUG
Summary of the method: as §1

[4] = test system: biotinyl-Val-oxazolone; experiment: self-aminoacylation, catalytic enhancement (BVO) (fold over background); higher = more active; k-Seq, kA / k0A0; sequences stand for … in GGGAAUGGAUCCACAUCUACGAAUUC…UUCACUGCAGACUUGACGAAGCUG
Summary of the method: as §1

[5] = test system: biotinyl-Leu-oxazolone; experiment: self-aminoacylation, catalytic enhancement (BLO) (fold over background); higher = more active; k-Seq, kA / k0A0; sequences stand for … in GGGAAUGGAUCCACAUCUACGAAUUC…UUCACUGCAGACUUGACGAAGCUG
Summary of the method: as §1

[6] = test system: biotinyl-Ile-oxazolone; experiment: self-aminoacylation, catalytic enhancement (BIO) (fold over background); higher = more active; k-Seq, kA / k0A0; sequences stand for … in GGGAAUGGAUCCACAUCUACGAAUUC…UUCACUGCAGACUUGACGAAGCUG
Summary of the method: as §1

## AUUACCCUGCUCAUAGAGUGA [Fam2.1 aminoacylation ribozyme variant]
[1]
  self-aminoacylation: 9.74
[2]
  self-aminoacylation: 10.7
[3]
  self-aminoacylation: 57.5
[4]
  self-aminoacylation: 4.28
[5]
  self-aminoacylation: 8.96
[6]
  self-aminoacylation: 3.87

## CUACUUCCAGCAAUCGGUCUG [Fam1A.1 aminoacylation ribozyme variant]
[1]
  self-aminoacylation: 0.77
[2]
  self-aminoacylation: 0.458
[3]
  self-aminoacylation: 0.605
[4]
  self-aminoacylation: 0.961
[5]
  self-aminoacylation: 1.04
[6]
  self-aminoacylation: 0.87

## AAGAUUGCUAAUAGUCGCAAA [Fam3.1 aminoacylation ribozyme variant]
[1]
  self-aminoacylation: 1.37
[2]
  self-aminoacylation: 2.09
[3]
  self-aminoacylation: 1.39
[4]
  self-aminoacylation: 1.3
[5]
  self-aminoacylation: 1.43
[6]
  self-aminoacylation: 1.58

## AUGCCCCUGGUCAUCGAGUGA [Fam2.1 aminoacylation ribozyme variant]
[1]
  self-aminoacylation: 9.73
[2]
  self-aminoacylation: 10
[3]
  self-aminoacylation: 38.4
[4]
  self-aminoacylation: 5.59
[5]
  self-aminoacylation: 10.2
[6]
  self-aminoacylation: 5.14

## AUUGACCUAGGUGAUCGGGUG [Fam2.2 aminoacylation ribozyme variant]
[1]
  self-aminoacylation: 4.22
[2]
  self-aminoacylation: 6.18
[3]
  self-aminoacylation: 25.9
[4]
  self-aminoacylation: 3.78
[5]
  self-aminoacylation: 5.78
[6]
  self-aminoacylation: 4.21

## AAUUUUGCUAAUAGUCGCAAA [Fam3.1 aminoacylation ribozyme variant]
[1]
  self-aminoacylation: 3.1
[2]
  self-aminoacylation: 2.42
[3]
  self-aminoacylation: 2.06
[4]
  self-aminoacylation: 2.15
[5]
  self-aminoacylation: 2.22
[6]
  self-aminoacylation: 3

## CUUCUUCAAGCAAUCGGUCUG [Fam1A.1 aminoacylation ribozyme variant]
[1]
  self-aminoacylation: 0.909
[2]
  self-aminoacylation: 2.18
[3]
  self-aminoacylation: 3.14
[4]
  self-aminoacylation: 0.944
[5]
  self-aminoacylation: 0.978
[6]
  self-aminoacylation: 0.745

## AUAACCCUGGCCAUCGAGUGA [Fam2.1 aminoacylation ribozyme variant]
[1]
  self-aminoacylation: 4.48
[2]
  self-aminoacylation: 3.57
[3]
  self-aminoacylation: 11.4
[4]
  self-aminoacylation: 2.09
[5]
  self-aminoacylation: 2.71
[6]
  self-aminoacylation: 3.35

## AUUGACCGAGGUCAUCGGGUG [Fam2.2 aminoacylation ribozyme variant]
[1]
  self-aminoacylation: 8.11
[2]
  self-aminoacylation: 8.13
[3]
  self-aminoacylation: 54.8
[4]
  self-aminoacylation: 4.8
[5]
  self-aminoacylation: 11
[6]
  self-aminoacylation: 4.88

## CUAUUUCAAACAAUCGGUUUG [Fam1A.1 aminoacylation ribozyme variant]
[1]
  self-aminoacylation: 0.903
[2]
  self-aminoacylation: 3.18
[3]
  self-aminoacylation: 4.11
[4]
  self-aminoacylation: 0.81
[5]
  self-aminoacylation: 1
[6]
  self-aminoacylation: 0.907

## AUUCACCUAGGUAAUCGCGUG [Fam2.2 aminoacylation ribozyme variant]
[1]
  self-aminoacylation: 2.51
[2]
  self-aminoacylation: 2.74
[3]
  self-aminoacylation: 16.1
[4]
  self-aminoacylation: 2.15
[5]
  self-aminoacylation: 2.8
[6]
  self-aminoacylation: 1.75

## AUUAACCUGGGCAUCGAGUGA [Fam2.1 aminoacylation ribozyme variant]
[1]
  self-aminoacylation: 4.66
[2]
  self-aminoacylation: 5.8
[3]
  self-aminoacylation: 20.5
[4]
  self-aminoacylation: 2.6
[5]
  self-aminoacylation: 5.72
[6]
  self-aminoacylation: 2.63

## AUUCACCUAGGUCAUCGUGUU [Fam2.2 aminoacylation ribozyme variant]
[1]
  self-aminoacylation: 0.887
[2]
  self-aminoacylation: 1.62
[3]
  self-aminoacylation: 0.729
[4]
  self-aminoacylation: 0.73
[5]
  self-aminoacylation: 0.905
[6]
  self-aminoacylation: 0.899
